Laboratory results published in PMC7183766.

Target: SpirNT(A*)-biotin (on streptavidin beads) (Drosophila melanogaster) (UniProt Q9U1K1)
Assay: TIRF microscopy of actin filaments on protein-coated beads

Chain of SpirNT(A*)-biotin (on streptavidin beads) (Drosophila melanogaster) (Q9U1K1 1-490): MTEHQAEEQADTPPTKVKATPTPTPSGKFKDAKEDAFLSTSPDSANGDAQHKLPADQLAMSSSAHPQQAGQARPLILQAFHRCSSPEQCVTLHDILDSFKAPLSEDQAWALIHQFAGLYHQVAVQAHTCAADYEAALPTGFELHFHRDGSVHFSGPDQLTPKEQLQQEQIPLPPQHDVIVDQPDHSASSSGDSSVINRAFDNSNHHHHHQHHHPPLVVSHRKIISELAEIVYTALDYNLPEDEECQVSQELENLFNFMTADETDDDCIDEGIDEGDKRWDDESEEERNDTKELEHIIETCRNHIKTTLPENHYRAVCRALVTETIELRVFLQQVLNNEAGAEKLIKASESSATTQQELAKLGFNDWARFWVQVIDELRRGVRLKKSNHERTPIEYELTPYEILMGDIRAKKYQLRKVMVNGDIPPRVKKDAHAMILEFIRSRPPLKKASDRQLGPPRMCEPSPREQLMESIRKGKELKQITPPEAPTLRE

- koff: 0.011 s⁻¹
Substance: actin filaments (Acanthamoeba castellani actin) (natural protein)
